Tests used:
[1] = biological target: P22 coat protein (bacteriophage P22) (UniProt P26747); test: SEC-MALS; P22-CYP VLPs from differential expression 2 (pBAD + pRSF; 0.125 % L-arabinose, then 0.3 mM IPTG) in E. coli, purified; HPLC-MALS-RI on WTC-100S5 column, 50 mM phosphate pH 7.2, 100 mM NaCl, 200 ppm sodium azide; CYP-SP per capsid by Eq. 1
[2] = biological target: P22 coat protein (bacteriophage P22) (UniProt P26747); test: SEC-MALS; P22-CYP VLPs from co-expression (pETDuet) in E. coli, purified; HPLC-MALS-RI on WTC-100S5 column, 50 mM phosphate pH 7.2, 100 mM NaCl, 200 ppm sodium azide; CYP-SP per capsid by Eq. 1 (capsid mass taken as 19,572 kDa, CYP-SP 71.5 kDa)
[3] = biological target: P22 coat protein (bacteriophage P22) (UniProt P26747); test: SEC-MALS; P22-CYP VLPs from differential expression 1 (pBAD + pRSF; 0.2 % L-arabinose, then 0.5 mM IPTG) in E. coli, purified; HPLC-MALS-RI on WTC-100S5 column, 50 mM phosphate pH 7.2, 100 mM NaCl, 200 ppm sodium azide; CYP-SP per capsid by Eq. 1

Chain of UniProt P26747 (P26747 whole entry): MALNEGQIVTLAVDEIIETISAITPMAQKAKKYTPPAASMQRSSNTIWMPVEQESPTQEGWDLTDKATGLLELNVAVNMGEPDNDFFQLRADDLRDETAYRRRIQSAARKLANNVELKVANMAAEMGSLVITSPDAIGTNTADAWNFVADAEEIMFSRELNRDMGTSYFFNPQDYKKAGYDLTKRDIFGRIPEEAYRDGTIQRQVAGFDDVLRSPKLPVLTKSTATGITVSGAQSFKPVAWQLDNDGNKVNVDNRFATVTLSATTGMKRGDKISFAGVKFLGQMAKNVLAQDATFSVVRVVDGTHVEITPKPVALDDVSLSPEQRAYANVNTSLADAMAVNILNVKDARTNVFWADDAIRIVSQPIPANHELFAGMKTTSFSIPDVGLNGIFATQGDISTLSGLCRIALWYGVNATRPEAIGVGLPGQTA

With “CYPBM3 "21B3"-scaffold protein fusion (CYP-SP) (from UniProt P26748 141-303)” the stoichiometry N [1] was 110 CYP/capsid, the stoichiometry N [2] was 156 CYP/capsid and the stoichiometry N [3] was 130 CYP/capsid.

Source: publication PMC4599659
